Source: US20090018083A1

What was measured:
[1] = target: BCL6-3C BTB domain (human BCL6 residues 5-129 with C8Q/C67R/C84N) (human) (UniProt P41182); assay: SPR, biotinylated peptide on streptavidin chip, BCL6-3C BTB domain injected
[2] = target: GAL4-BTB^BCL6 (GAL4 DNA binding domain fused to the wild-type BCL6 BTB domain) (human); assay: cell-based or functional assay

Chain of N-CoR^1351-1383 peptide, biotinylated, immobilised for SPR (Q60974 1351-1383): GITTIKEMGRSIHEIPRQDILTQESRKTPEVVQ

## N-CoR^1351-1383 peptide, biotinylated, immobilised for SPR
[1]
  fold stronger affinity relative to SMRT^1414-1441: 2.5 fold

## full-length BCoR (from UniProt Q6W2J9 1-1721)
[2]
  enhancement of repression in reporter assays: 2 to 3 fold
